Patent publication US20180177842A1 (CANIMGUIDE THERAPEUTICS, published 2018)
Ends that are not written are not given here.

T1: His-tagged P3028 (PGE73) (human, also: His tag, length and end not given here)
T1 construct: the tag is put first here only for want of a statement; also called His-tag-P3028; not shown: His tag
T1 peptide: VFDEFKPLVEEPQNLIK

B1: SEQ ID NO 9 (peptide)
peptide: KKLDTFMVKLSLFTER
notes: on PEPSCAN card; also called P28R with M in position 7
B2: SEQ ID NO 10 (peptide)
peptide: KKLDTFSVKLSLFTER
notes: on PEPSCAN card; also called P28R with S in position 7
B3: SEQ ID NO 15 (peptide)
peptide: KKLDTFFVKLQLFTER
notes: on PEPSCAN card; also called P28R with Q in position 11
B4: SEQ ID NO 16 (peptide)
peptide: KKLDTFFVKLMLFTER
notes: on PEPSCAN card; also called P28R with M in position 11
B5: SEQ ID NO 22 (peptide)
peptide: KKLDTFFVKLSLMTER
notes: on PEPSCAN card; also called P28R with M in position 13
B6: SEQ ID NO 23 (peptide)
peptide: KKLDTFFVKLSLQTER
notes: on PEPSCAN card; also called P28R with Q in position 13
B7: SEQ ID NO 24 (peptide)
peptide: KKLDTFFVKLSLHTER
notes: on PEPSCAN card; also called P28R with H in position 13
B8: SEQ ID NO 25 (peptide)
peptide: KKLDTFFVKLSLNTER
notes: on PEPSCAN card; also called P28R with N in position 13

Biological target: Artificial Cell Surface (ACS)
Experiment: ACS column adsorption of trypsin-digested dHSA, MALDI-TOF MS

First: QEPERNECFLQHK (not fully specified) [… (trypsin-generated albumin fragment, SEQ ID NO: 211)]
Second: VHTECCHGDLLECADDR [… (trypsin-generated albumin fragment, SEQ ID NO: 212)]
The Percent Absorbed of the first is higher: 18% for the first, 13% for the second.

First: KVPQVSTPTLVEVSR [… (trypsin-generated albumin fragment, SEQ ID NO: 195)]
Second: FKDLGEENFK [… (trypsin-generated albumin fragment, SEQ ID NO: 213)]
The Percent Absorbed of the first is higher: 64% for the first, 8% for the second.

First: YICENQDSISSK [… (trypsin-generated albumin fragment, SEQ ID NO: 214)]
Second: LDELRDEGK [… (trypsin-generated albumin fragment, SEQ ID NO: 215)]
The Percent Absorbed of the first is higher: 3% for the first, 2% for the second.

First: DDNPNLPR [DDNPNLPR (trypsin-generated albumin fragment, SEQ ID NO: 216)]
Second: VFDEFKPLVEEPQNLIK [… (trypsin-generated albumin fragment, SEQ ID NO: 196)]
The Percent Absorbed of the first is lower: 1% for the first, 60% for the second.

Going from VPQVSTPTLVEVSR [… (trypsin-generated albumin fragment, SEQ ID NO: 197)] to RPCFSALEVDETYVPK [… (trypsin-generated albumin fragment, SEQ ID NO: 198)], the Percent Absorbed falls from 59% to 42%.

First: FQNALLVR [FQNALLVR (trypsin-generated albumin fragment, SEQ ID NO: 199)]
Second: SLHTLFGDK [… (trypsin-generated albumin fragment, SEQ ID NO: 200)]
The Percent Absorbed of the first is higher: 41% for the first, 36% for the second.

Compared with LKECCEKPLLEK [… (trypsin-generated albumin fragment, SEQ ID NO: 201)], LCTVATLR [LCTVATLR (trypsin-generated albumin fragment, SEQ ID NO: 202)] is lower in Percent Absorbed: 36% for the first, 35% for the second.

Biological target: Artificial Cell Surface (ACS)
Experiment: ACS column adsorption of Asp-N-digested dHSA, MALDI-TOF MS

DHVKLVNEVTEFAKTCVA [… (Asp-N-generated albumin fragment, SEQ ID NO: 217)] and DDKETCFAEEGKKLVAASQAALGL [… (Asp-N-generated albumin fragment, SEQ ID NO: 218)] are the same in Percent Absorbed: 100% for the first, 100% for the second.

Compared with DRVTKCCTESLVNRRPCFSALEV [… (Asp-N-generated albumin fragment, SEQ ID NO: 219)], DETYVPKEFNAETFTHA [… (Asp-N-generated albumin fragment, SEQ ID NO: 220)] is lower in Percent Absorbed: 87% for the first, 86% for the second.

DSISSKLKECCEKPLLEKSHCIAEVEN [… (Asp-N-generated albumin fragment, SEQ ID NO: 221)] and DKLCTVATLRETYGEM [… (Asp-N-generated albumin fragment, SEQ ID NO: 222)] are the same in Percent Absorbed: 65% for the first, 65% for the second.

YSVVLLLRLAKTYETTLEKCCAAADPHECYAKVF [… (Asp-N-generated albumin fragment, SEQ ID NO: 223)] and KLCTVATLRETYGEMADCCAKQEPERNECFLQHK [… (Asp-N-generated albumin fragment, SEQ ID NO: 224)] are the same in Percent Absorbed: 100% for the first, 100% for the second.

ICTLSEKERQIKKQTALVELVKHKPKATKEQLKAVM [… (Asp-N-generated albumin fragment, SEQ ID NO: 225)] and LAKYICENQDSISSKLKECCEKPLLEKHCIAEVEN [… (Asp-N-generated albumin fragment, SEQ ID NO: 226)] are the same in Percent Absorbed: 100% for the first, 100% for the second.

VFLGMFLYEYARRHPDYSVVLLLRLAKTYETTLEKCCAAA [… LEKCCAAA (Asp-N-generated albumin fragment, SEQ ID NO: 227)] and LGEENFKALVLIAFAQYLQQCPFEDHVKLVNEVTEFAKTCVA [… (Asp-N-generated albumin fragment, SEQ ID NO: 228)] are the same in Percent Absorbed: 100% for the first, 100% for the second.

Compared with RVTKCCTESLVNRRPCFSALEVDETYVPKEFNAETFTFHA [… (Asp-N-generated albumin fragment, SEQ ID NO: 229)], YLSVVLNQLCVLHEKTPVSDRVTKCCCTESLVNRRPFSALEV [… (Asp-N-generated albumin fragment, SEQ ID NO: 230)] is lower in Percent Absorbed: 100% for the first, 37% for the second.

Biological target: T1, His-tagged P3028 (PGE73)
Experiment: PEPSCAN ELISA: peptide on chip, His-tagged P3028 in solution, anti-His mAb and rampo conjugate
Experimental: After washing, the peroxidase substrate 2,2′-azine-di-3-ethylbenzthiazoline sulfonate (ABTS) and 2 μL of 3% H2O2 were added. The binding capacity of the mAb was measured as a color development at 405 nm (optical density, OD405). The color development was quantified with a charge-coupled device (CCD)—camera and an image processing system.
The OD405-values obtained by a CCD-camera was considered as raw data values (“rampo values,” “rampo units,” or “rampo scores”). […] First the CCD-camera made a picture of the card before peroxidase coloring and then again a picture after the peroxidase coloring. […] These values were copied into an excel file and labeled as a raw data file. […] Sometimes a well can contain an air-bubble resulting in a false-positive value. If manual inspection of the cards detect an air-bubble the value are set to 0 for well.

B1 and B2 cannot be ordered by rampo value: over 700 rampo units for the first, over 700 rampo units for the second.

B3 and B4 cannot be ordered by rampo value: over 700 rampo units for the first, over 700 rampo units for the second.

B5 and B6 cannot be ordered by rampo value: over 800 rampo units for the first, over 800 rampo units for the second.

B7 and B8 cannot be ordered by rampo value: over 800 rampo units for the first, over 800 rampo units for the second.
